Read-outs that look alike come from different tables or passages of the source.

In test [1] the target is chimeric receptor mouse FLK-1/human fms expressed on transfected 3T3 cells (C441) (mouse; human) (UniProt P35918). Kind of test: saturation binding to intact C441 cells, colorimetric detection.
For test [2] the target is unchanged. Kind of test: cell-based or functional assay.
The target of test [3] is T1, soluble fusion protein KDR-AP (KDR extracellular domain fused to human placental alkaline phosphatase) (human, UniProt P35968 20-764).
T1 construct: extracellular domain; also called immobilized KDR; KDR receptor; not shown: human placental alkaline phosphatase (vector AP-Tag)
Briefly: competitive ELISA: KDR-AP binding to immobilized VEGF165. Background: ELISA stands for enzyme-linked immunosorbent assay.

Test [4] addresses T1, soluble fusion protein KDR-AP (KDR …). Kind of test: BIAcore, KDR-AP immobilized. Here is the method: The binding kinetics of antibodies to KDR were measured using BIAcore biosensor (Pharmacia Biosensor). […] Sensorgrams were obtained at each concentration and were evaluated using a program, BIA Evaluation 2.0, to determine the rate constants kon and koff. Kd was calculated as the ratio of rate constants koff/kon.
*All rates are determined by surface plasmon resonance using BIAcore system, and are mean of at least three separate determinations.

The target is the same in test [5]. Briefly: competitive VEGF blocking ELISA: KDR-AP binding to immobilized VEGF165.
Test [6] has the same target. Briefly: direct binding ELISA on KDR-coated plates (printed ED50, 50% of maximum binding). As to the method: In the direct binding assay, various amounts of soluble scFv were added to KDR-coated 96-well Maxi-sorp microtiter plates and incubated at room temerature for 1 h, after which the plates were washed 3 times with PBST. The plates were then incubated at room temerature for 1 h with 100 μl of mouse anti-E tag antibody followed by incubation with 100 µl of rabbit anti-mouse antibody-HRP conjugate. The plates were washed and developed following the procedure described above for the phage ELISA.

In another test the target is KDR expressed on HUVEC (human, UniProt P35968 20-1356). Kind of test: cell-based or functional assay.
Test [7] concerns the target T1, soluble fusion protein KDR-AP (KDR …). Briefly: BIAcore, KDR-AP immobilized. Here is the method: The binding kinetics of soluble scFv to KDR were measured using BIAcore biosensor (Pharmacia Biosensor). KDR-AP fusion protein was immobilized onto a sensor chip and soluble scFv were injected at concentrations ranging from 62.5 nM to 1000 nM. Sensorgrams were obtained at each concentration and were evaluated using a program, BIA Evaluation 2.0, to determine the rate constant kon and koff. Kd was calculated from the ratio of rate constants koff/kon.
The source holds these as a separate data set. On the technique in general: Surface plasmon resonance follows binding to a sensor surface in real time, without labels.

T1 sequence (P35968 20-764): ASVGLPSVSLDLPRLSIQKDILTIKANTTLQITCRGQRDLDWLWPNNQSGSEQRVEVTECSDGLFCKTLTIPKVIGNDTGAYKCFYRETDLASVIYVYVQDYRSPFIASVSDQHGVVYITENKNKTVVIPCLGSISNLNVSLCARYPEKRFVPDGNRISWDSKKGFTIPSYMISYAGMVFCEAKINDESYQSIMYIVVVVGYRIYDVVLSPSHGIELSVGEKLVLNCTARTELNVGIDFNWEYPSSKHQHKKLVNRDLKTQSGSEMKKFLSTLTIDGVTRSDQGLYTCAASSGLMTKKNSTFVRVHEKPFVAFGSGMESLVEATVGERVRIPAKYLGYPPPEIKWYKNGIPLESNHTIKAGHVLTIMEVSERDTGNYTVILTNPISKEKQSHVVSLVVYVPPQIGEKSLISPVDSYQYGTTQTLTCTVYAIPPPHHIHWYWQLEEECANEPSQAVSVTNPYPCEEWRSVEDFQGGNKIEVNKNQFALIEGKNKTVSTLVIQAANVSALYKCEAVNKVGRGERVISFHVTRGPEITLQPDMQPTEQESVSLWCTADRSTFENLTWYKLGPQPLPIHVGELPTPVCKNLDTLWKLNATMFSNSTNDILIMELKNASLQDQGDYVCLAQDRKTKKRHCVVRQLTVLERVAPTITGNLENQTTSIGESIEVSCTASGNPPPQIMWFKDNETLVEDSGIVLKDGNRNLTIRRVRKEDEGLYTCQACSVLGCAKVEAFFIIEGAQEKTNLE
Sequence of chimeric receptor mouse FLK-1/human fms expressed on transfected 3T3 cells (C441) (mouse; human) (P35918 other isoform, or with tags, fused parts or gaps mutant limits assumed): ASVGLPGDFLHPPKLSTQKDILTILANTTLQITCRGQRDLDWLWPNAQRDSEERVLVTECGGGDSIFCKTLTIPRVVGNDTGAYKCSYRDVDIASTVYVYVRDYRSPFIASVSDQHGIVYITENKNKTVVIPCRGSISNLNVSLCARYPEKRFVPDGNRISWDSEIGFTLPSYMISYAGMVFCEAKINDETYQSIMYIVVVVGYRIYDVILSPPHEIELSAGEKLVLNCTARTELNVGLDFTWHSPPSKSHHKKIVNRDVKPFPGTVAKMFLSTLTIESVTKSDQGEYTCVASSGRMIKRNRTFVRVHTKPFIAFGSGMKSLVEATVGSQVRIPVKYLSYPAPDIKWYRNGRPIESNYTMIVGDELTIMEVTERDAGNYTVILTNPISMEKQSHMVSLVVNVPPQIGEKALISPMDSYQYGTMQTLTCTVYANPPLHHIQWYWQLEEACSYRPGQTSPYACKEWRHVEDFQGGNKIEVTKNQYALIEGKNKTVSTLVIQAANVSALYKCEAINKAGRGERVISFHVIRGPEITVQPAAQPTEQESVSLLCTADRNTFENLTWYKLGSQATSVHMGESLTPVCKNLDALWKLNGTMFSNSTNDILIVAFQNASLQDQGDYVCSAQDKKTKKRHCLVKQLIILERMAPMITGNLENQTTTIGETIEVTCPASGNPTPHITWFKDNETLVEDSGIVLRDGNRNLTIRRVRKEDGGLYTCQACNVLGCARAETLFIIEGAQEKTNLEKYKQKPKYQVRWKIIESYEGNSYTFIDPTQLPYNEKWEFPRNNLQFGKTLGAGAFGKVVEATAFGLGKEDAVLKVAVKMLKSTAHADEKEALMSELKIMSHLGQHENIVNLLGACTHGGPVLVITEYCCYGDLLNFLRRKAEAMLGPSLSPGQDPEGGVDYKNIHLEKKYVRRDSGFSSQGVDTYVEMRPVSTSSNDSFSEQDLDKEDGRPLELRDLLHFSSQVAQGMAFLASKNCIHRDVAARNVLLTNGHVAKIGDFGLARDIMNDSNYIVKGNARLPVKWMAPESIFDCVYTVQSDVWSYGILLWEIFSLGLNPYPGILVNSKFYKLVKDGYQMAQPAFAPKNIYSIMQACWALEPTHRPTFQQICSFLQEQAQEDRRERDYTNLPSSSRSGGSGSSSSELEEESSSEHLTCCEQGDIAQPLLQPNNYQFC
Sequence of KDR expressed on HUVEC (P35968 20-1356): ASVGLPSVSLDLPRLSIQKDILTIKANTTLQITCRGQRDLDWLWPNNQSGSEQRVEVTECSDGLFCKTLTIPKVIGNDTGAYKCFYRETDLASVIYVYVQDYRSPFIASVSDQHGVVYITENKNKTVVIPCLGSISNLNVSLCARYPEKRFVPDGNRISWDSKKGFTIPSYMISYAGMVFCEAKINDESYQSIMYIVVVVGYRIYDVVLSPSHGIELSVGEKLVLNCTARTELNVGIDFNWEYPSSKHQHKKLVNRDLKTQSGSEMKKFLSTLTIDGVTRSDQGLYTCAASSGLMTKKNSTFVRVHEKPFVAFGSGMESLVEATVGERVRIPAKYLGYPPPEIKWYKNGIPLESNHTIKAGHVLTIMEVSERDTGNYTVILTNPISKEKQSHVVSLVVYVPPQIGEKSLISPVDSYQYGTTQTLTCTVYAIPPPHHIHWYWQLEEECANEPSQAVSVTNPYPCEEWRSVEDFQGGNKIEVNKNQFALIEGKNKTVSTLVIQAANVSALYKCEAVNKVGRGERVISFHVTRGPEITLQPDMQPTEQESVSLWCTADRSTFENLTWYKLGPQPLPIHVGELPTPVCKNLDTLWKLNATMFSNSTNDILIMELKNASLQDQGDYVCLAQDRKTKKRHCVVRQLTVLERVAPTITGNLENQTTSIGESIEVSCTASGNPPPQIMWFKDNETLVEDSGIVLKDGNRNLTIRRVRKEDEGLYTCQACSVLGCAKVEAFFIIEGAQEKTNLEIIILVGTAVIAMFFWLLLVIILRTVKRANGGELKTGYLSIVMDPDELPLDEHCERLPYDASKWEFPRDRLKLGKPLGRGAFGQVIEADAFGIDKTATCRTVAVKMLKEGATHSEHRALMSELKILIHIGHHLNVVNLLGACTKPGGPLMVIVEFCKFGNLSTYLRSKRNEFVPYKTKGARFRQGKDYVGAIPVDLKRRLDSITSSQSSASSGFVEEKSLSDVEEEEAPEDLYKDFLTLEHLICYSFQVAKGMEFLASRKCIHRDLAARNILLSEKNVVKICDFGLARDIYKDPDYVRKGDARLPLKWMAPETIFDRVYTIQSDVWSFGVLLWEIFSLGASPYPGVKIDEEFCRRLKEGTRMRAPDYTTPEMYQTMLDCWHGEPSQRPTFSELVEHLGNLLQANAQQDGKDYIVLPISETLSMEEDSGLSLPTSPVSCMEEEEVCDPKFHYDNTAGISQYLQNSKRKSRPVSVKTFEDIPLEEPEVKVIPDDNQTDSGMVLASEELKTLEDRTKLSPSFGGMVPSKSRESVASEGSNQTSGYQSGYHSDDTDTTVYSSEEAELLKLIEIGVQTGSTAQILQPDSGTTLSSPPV

B1: rat anti-mouse FLK-1 monoclonal antibody DC-101 (antibody, from another filing, rat IgG1, V domains shown)
VH: EVQLVETGGGLVQPGNSLKLSCATSGFIFSTTWMNWIRQTPGKRLEWLAQIEDKSNNYFISYSESVKGRFTISRDDSKSSVYLQMNNLKEEDTAIYYCSWKYRSNYYFDYWGQGVMVTVSS
VL: DIVLTQSPALAVSLEQRATISCKTSQNVDYYGISYLHWYQQKPGQQPKLLIYEGSNLASGIPARFSGSGSGTDFTLTIDPVEADDIVTYYCQQSKDYPYTFGAGTKLELKR
Take B1: the relative apparent affinity in test [1] was found to be 500 ng/mL. For the same molecule, in test [2], the antibody concentration giving a marked decrease in the phosphorylation of FLK-1, competitive conditions was over 0.5 µg/mL; the antibody concentration giving a marked decrease in the phosphorylation of FLK-1 by VEGF165 (40 ng/ml) was over 0.5 µg/mL; the antibody concentration sufficient to inhibit receptor activation by ligand was under 1 µg/mL; the level of FLK-1/fms phosphorylation relative to the fully stimulated receptor control, antibody added with VEGF (densitometry) was 40%. In addition, in test [2], the level of FLK-1/fms phosphorylation relative to the fully stimulated receptor control, antibody prebound (densitometry) was 6% and the prebound antibody concentration sufficient to completely inhibit receptor activation by ligand was under 1 µg/mL.

B2: chimeric p1C11 IgG (c-p1C11) (antibody, V domains shown)
VH: QVKLQQSGAELVGSGASVKLSCTTSGFNIKDFYMHWVKQRPEQGLEWIGWIDPENGDSDYAPKFQGKATMTADSSSNTAYLQLSSLTSEDTAVYYCNAYYGDYEGYWGQGTTVTVSS
VL: DIELTQSPAIMSASPGEKVTITCSASSSVSYMHWFQQKPGTSPKLWIYSTSNLASGVPARFSGSGSGTSYSLTISRMEAEDAATYYCQQRSSYPFTFGSGTKLEIK
notes: bivalent IgG made in COS cells; also called chimeric IgG
In the case of B2, the IC50 in test [3] came to 0.8 nM. In test [4], this molecule registered a dissociation constant (Kd) of 0.82 nM, a koff of 5.2e-05 s⁻¹ and a kon of 63000 M⁻¹ s⁻¹.

B3: anti-KDR single chain antibody p1C11 (scFv)
scFv: QVKLQQSGAELVGSGASVKLSCTTSGFNIKDFYMHWVKQRPEQGLEWIGWIDPENGDSDYAPKFQGKATMTADSSSNTAYLQLSSLTSEDTAVYYCNAYYGDYEGYWGQGTTVTVSSGGGGSGGGGSGGGGSDIELTQSPAIMSASPGEKVTITCSASSSVSYMHWFQQKPGTSPKLWIYSTSNLASGVPARFSGSGSGTSYSLTISRMEAEDAATYYCQQRSSYPFTFGSGTKLEIK
notes: also called scFv p1C11; p1C11 scFv
Consider B3, for which, in test [5], the IC50 was determined as 3 nM. In test [6], this molecule had an EC50 of 0.3 nM. Moreover, in the test with KDR expressed on HUVEC, the “EC50, the antibody concentration that inhibited 50% of VEGF-stimulated mitogenesis of HUVEC” value is about 5 nM. In test [3], this molecule registered a half-maximal inhibitory concentration (IC50) of 2 nM. In addition, in test [4], the equilibrium dissociation constant (Kd) turned out to be 2.1 nM, the dissociation rate constant (koff) worked out at 0.000227 s⁻¹ and the kon is 111000 M⁻¹ s⁻¹. Besides, in test [7], the Kd turned out to be 2.1 nM, the koff turned out to be 0.00023 s⁻¹ and the on-rate constant (kon) was determined as 110000 M⁻¹ s⁻¹.

The IC50 is the midpoint of a concentration-inhibition curve. Lower therefore signals higher potency. Broadly, the Kd is the equilibrium constant for the complex coming apart. What is called koff is the rate constant with which the complex falls apart. Read a low koff as a long-lived complex. As a reminder, the kon is the rate constant with which the complex forms. The low end stands for slower complex formation, the high end for faster complex formation. One may read the EC50 as the concentration needed to bring the measured effect to its halfway point. The low end stands for an effect from little substance, the high end for a need for much substance.

The record behind these values is patent publication US20030103973A1 (published 2003).
